The target in data set [1] is T1, XPG FF67,68AA (Homo sapiens, UniProt P28715 1-1186, F67A;F68A).
T1 sequence: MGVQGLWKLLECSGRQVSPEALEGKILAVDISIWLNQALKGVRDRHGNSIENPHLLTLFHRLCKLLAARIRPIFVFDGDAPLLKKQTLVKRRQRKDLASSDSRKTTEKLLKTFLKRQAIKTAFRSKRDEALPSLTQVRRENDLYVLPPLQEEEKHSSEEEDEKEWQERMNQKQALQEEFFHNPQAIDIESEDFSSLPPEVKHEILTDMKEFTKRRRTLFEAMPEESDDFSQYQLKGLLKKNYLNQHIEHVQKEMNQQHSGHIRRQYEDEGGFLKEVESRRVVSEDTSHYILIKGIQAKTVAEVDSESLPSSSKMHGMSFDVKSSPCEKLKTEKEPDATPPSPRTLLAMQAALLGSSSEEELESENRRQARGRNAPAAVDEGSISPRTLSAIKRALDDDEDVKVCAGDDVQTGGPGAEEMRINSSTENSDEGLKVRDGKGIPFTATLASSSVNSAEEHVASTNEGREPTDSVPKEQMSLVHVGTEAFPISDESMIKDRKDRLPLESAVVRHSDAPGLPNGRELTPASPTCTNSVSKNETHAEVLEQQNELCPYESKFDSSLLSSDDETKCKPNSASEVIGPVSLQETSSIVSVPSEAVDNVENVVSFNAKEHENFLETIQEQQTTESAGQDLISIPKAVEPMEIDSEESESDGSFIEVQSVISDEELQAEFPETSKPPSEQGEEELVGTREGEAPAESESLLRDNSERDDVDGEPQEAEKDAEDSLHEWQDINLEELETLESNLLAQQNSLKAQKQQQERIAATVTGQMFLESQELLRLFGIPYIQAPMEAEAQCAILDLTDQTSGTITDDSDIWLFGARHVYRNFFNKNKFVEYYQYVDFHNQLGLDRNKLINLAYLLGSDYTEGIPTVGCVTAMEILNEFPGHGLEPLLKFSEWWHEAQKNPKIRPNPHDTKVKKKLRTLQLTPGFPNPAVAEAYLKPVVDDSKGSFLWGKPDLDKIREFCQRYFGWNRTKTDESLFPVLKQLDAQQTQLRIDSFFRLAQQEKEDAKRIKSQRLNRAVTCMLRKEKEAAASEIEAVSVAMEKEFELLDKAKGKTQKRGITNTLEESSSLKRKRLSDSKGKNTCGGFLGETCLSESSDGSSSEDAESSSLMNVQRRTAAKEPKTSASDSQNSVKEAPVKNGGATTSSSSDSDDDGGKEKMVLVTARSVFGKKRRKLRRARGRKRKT
Description: EMSA.

Data set [2] deals with T2, XPG-FLAG (full-length WT) (Homo sapiens, UniProt P28715 1-1186).
T2 sequence: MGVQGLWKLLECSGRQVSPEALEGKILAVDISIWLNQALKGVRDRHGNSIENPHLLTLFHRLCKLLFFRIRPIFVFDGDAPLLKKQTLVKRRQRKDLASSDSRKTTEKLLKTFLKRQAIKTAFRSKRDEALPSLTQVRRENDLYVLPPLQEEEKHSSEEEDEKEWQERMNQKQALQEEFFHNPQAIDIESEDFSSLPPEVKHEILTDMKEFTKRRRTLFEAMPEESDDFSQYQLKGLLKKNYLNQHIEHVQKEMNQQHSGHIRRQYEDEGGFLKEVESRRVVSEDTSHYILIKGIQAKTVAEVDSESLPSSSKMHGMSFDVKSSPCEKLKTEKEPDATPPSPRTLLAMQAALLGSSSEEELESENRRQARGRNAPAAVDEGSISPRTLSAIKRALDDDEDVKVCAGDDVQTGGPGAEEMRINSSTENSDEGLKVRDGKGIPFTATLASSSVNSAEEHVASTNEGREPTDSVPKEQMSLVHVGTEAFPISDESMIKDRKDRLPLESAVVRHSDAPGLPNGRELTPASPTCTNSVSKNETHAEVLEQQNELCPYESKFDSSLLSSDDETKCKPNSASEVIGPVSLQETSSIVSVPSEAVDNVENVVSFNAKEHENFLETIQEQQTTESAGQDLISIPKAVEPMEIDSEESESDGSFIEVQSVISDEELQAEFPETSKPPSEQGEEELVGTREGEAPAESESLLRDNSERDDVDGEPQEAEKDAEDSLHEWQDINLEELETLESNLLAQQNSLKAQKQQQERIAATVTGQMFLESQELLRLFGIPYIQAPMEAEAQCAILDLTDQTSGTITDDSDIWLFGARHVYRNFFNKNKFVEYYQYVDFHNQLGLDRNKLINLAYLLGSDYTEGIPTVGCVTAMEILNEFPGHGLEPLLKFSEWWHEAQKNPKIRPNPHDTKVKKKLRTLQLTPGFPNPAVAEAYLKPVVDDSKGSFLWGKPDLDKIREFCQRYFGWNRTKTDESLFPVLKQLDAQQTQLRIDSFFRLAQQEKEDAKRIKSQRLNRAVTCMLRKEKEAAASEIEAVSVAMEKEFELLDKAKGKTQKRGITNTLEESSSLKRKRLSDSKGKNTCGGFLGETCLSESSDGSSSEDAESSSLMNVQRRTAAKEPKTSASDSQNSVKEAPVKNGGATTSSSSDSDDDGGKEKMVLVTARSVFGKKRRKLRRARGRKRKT
Description: EMSA. On the technique in general: In EMSA bound probe runs differently from free probe, usually more slowly.

B1: HP15T/C 15-nt bubble DNA (mixed)
DNA 1: CGCGAAGCGGGGCAGACAACGTGGCGCTGTTTTTTTTTTTTTTTGTGTCCTAGCACAGCGTATG
DNA 2: CGCGAAGCGCATACGCTGTGCTAGGACACCCCCCCCCCCCCCCCCAGCGCCACGTTGTCTGCCC
On to B1, for which the binding result in data set [1] and in data set [2] was “binds” throughout.

The values are drawn from article PMC7321962.
